Results: US20230002480A1

Legend:
Test in all cases: cell-based or functional assay
[1] = target: HIV-1 Env of pseudovirus AC10.0.29 (HIV-1)
[2] = target: HIV-1 Env of pseudovirus SC422661.8 (HIV-1)
[3] = target: HIV-1 Env of pseudovirus THRO4156.18 (HIV-1)
[4] = target: HIV-1 Env of pseudovirus 89-F1_2_25 (HIV-1)
[5] = target: HIV-1 Env of pseudovirus 263-8 (HIV-1)
[6] = target: HIV-1 Env of pseudovirus BJOX010000.06.2 (HIV-1)
[7] = target: HIV-1 Env of pseudovirus 9004SS_A3_4 (HIV-1)
[8] = target: HIV-1 Env of pseudovirus C1080.c03 (HIV-1)
[9] = target: HIV-1 Env of pseudovirus HIV-0013095-2.11 (HIV-1)
[10] = target: HIV-1 Env of pseudovirus TRJO4551.58 (HIV-1)
[11] = target: HIV-1 Env of pseudovirus Q769.d22 (HIV-1)
[12] = target: HIV-1 Env of pseudovirus 246F C1G (HIV-1)
[13] = target: HIV-1 Env of pseudovirus 3301.v1.c24 (HIV-1)
[14] = target: HIV-1 Env of pseudovirus 6545.v4.c1 (HIV-1)
[15] = target: HIV-1 Env of pseudovirus ZM247v1(Rev-) (HIV-1)
[16] = target: HIV-1 Env of pseudovirus PVO.4 (HIV-1)
[17] = target: HIV-1 Env of pseudovirus CNE52 (HIV-1)
[18] = target: HIV-1 Env of pseudovirus 620345.c01 (HIV-1)
[19] = target: HIV-1 Env of pseudovirus X1632_S2_B10 (HIV-1)
[20] = target: HIV-1 Env of pseudovirus 6952.v1.c20 (HIV-1)
[21] = target: HIV-1 Env of pseudovirus BJOX025000.01.1 (HIV-1)
[22] = target: HIV-1 Env of pseudovirus HIV-16055-2.3 (HIV-1)
[23] = target: HIV-1 Env of pseudovirus SC05_8C11_2344 (HIV-1)
[24] = target: HIV-1 Env of pseudovirus 6480.v4.c25 (HIV-1)
[25] = target: HIV-1 Env of pseudovirus T255-34 (HIV-1)
[26] = target: HIV-1 Env of pseudovirus T257-31 (HIV-1)
[27] = target: HIV-1 Env of pseudovirus ZM135M.PL10a (HIV-1)
[28] = target: HIV-1 Env of pseudovirus CNE19 (HIV-1)
[29] = target: HIV-1 Env of pseudovirus 3103.v3.c10 (HIV-1)
[30] = target: HIV-1 Env of pseudovirus C3347.c11 (HIV-1)
[31] = target: HIV-1 Env of pseudovirus 211-9 (HIV-1)
[32] = target: HIV-1 Env of pseudovirus Ce1086_B2 (HIV-1)
[33] = target: HIV-1 Env of pseudovirus P0402_c2_11 (HIV-1)
[34] = target: HIV-1 Env of pseudovirus 231965.c01 (HIV-1)
[35] = target: HIV-1 Env of pseudovirus ZM197M.PB7 (HIV-1)
[36] = target: HIV-1 Env of pseudovirus CNE21 (HIV-1)

PGDM1400 (antibody)
IC50 [1]: 0.105 µg/mL
IC80 [1]: 0.869 µg/mL
IC50 [2]: 0.436 µg/mL
IC80 [2]: 6.53 µg/mL
IC50 [3]: 0.072 µg/mL
IC80 [3]: 0.348 µg/mL
IC50, titer in TZM.bl cells [4]: 0.001 µg/mL
IC80, titer in TZM.bl cells [4]: 0.005 µg/mL
IC50 [5]: 0.02 µg/mL
IC80 [5]: 0.103 µg/mL
IC50, titer in TZM.bl cells [6]: 0.605 µg/mL
IC80, titer in TZM.bl cells [6]: 5.87 µg/mL
IC50 [7]: < 0.001 µg/mL
IC80 [7]: 0.002 µg/mL
IC50, titer in TZM.bl cells [8]: < 0.001 µg/mL
IC80, titer in TZM.bl cells [8]: < 0.001 µg/mL
IC50 [9]: 0.003 µg/mL
IC80 [9]: 0.012 µg/mL
IC50 [10]: > 50 µg/mL
IC80 [10]: > 50 µg/mL
IC50 [11]: 0.002 µg/mL
IC80 [11]: 0.018 µg/mL
IC50 [12]: > 50 µg/mL
IC80 [12]: > 50 µg/mL
IC50, titer in TZM.bl cells [13]: 0.048 µg/mL
IC80, titer in TZM.bl cells [13]: 0.245 µg/mL
IC50, titer in TZM.bl cells [14]: 0.003 µg/mL
IC80, titer in TZM.bl cells [14]: 0.039 µg/mL
IC50 [15]: 0.019 µg/mL
IC80 [15]: 0.051 µg/mL
IC50 [16]: 0.484 µg/mL
IC80 [16]: 6.49 µg/mL
IC50 [17]: 1.15 µg/mL
IC80 [17]: 9.97 µg/mL
IC50, titer in TZM.bl cells [18]: 0.009 µg/mL
IC80, titer in TZM.bl cells [18]: 40.3 µg/mL
IC50, titer in TZM.bl cells [19]: 0.055 µg/mL
IC80, titer in TZM.bl cells [19]: 1.45 µg/mL
IC50, titer in TZM.bl cells [20]: 0.501 µg/mL
IC80, titer in TZM.bl cells [20]: 11.8 µg/mL
IC50, titer in TZM.bl cells [21]: 0.087 µg/mL
IC80, titer in TZM.bl cells [21]: 0.573 µg/mL
IC50 [22]: < 0.001 µg/mL
IC80 [22]: 0.003 µg/mL
IC50 [23]: 1.26 µg/mL
IC80 [23]: 3.59 µg/mL
IC50, titer in TZM.bl cells [24]: > 50 µg/mL
IC80, titer in TZM.bl cells [24]: > 50 µg/mL
IC50, titer in TZM.bl cells [25]: 0.654 µg/mL
IC80, titer in TZM.bl cells [25]: > 50 µg/mL
IC50 [26]: 0.002 µg/mL
IC80 [26]: 0.031 µg/mL
IC50 [27]: > 50 µg/mL
IC80 [27]: > 50 µg/mL
IC50 [28]: 0.001 µg/mL
IC80 [28]: 0.007 µg/mL
IC50, titer in TZM.bl cells [29]: 0.671 µg/mL
IC80, titer in TZM.bl cells [29]: 2 µg/mL
IC50, titer in TZM.bl cells [30]: 0.011 µg/mL
IC80, titer in TZM.bl cells [30]: 0.051 µg/mL
IC50, titer in TZM.bl cells [31]: 0.088 µg/mL
IC80, titer in TZM.bl cells [31]: 0.393 µg/mL
IC50 [32]: > 50 µg/mL
IC80 [32]: > 50 µg/mL
IC50, titer in TZM.bl cells [33]: 0.01 µg/mL
IC80, titer in TZM.bl cells [33]: 0.033 µg/mL
IC50, titer in TZM.bl cells [34]: 0.025 µg/mL
IC80, titer in TZM.bl cells [34]: 1.28 µg/mL
IC50 [35]: 0.063 µg/mL
IC80 [35]: 0.285 µg/mL
IC50 [36]: < 0.001 µg/mL
IC80 [36]: 0.002 µg/mL

PGT151 (antibody)
IC50 [1]: 0.007 µg/mL
IC80 [1]: 0.023 µg/mL
IC50 [2]: 0.005 µg/mL
IC80 [2]: 0.028 µg/mL
IC50 [3]: > 50 µg/mL
IC80 [3]: > 50 µg/mL
IC50, titer in TZM.bl cells [4]: 22.9 µg/mL
IC80, titer in TZM.bl cells [4]: > 50 µg/mL
IC50 [5]: > 50 µg/mL
IC80 [5]: > 50 µg/mL
IC50, titer in TZM.bl cells [6]: > 50 µg/mL
IC80, titer in TZM.bl cells [6]: > 50 µg/mL
IC50 [7]: 0.003 µg/mL
IC80 [7]: 0.015 µg/mL
IC50, titer in TZM.bl cells [8]: > 50 µg/mL
IC80, titer in TZM.bl cells [8]: > 50 µg/mL
IC50 [9]: > 50 µg/mL
IC80 [9]: > 50 µg/mL
IC50 [10]: 0.496 µg/mL
IC80 [10]: 4.22 µg/mL
IC50 [11]: > 50 µg/mL
IC80 [11]: > 50 µg/mL
IC50 [12]: > 50 µg/mL
IC80 [12]: > 50 µg/mL
IC50, titer in TZM.bl cells [13]: 0.002 µg/mL
IC80, titer in TZM.bl cells [13]: 0.019 µg/mL
IC50, titer in TZM.bl cells [14]: 0.004 µg/mL
IC80, titer in TZM.bl cells [14]: 0.026 µg/mL
IC50 [15]: 0.009 µg/mL
IC80 [15]: > 50 µg/mL
IC50 [16]: 0.017 µg/mL
IC80 [16]: > 50 µg/mL
IC50 [17]: 0.004 µg/mL
IC80 [17]: 0.017 µg/mL
IC50, titer in TZM.bl cells [18]: > 50 µg/mL
IC80, titer in TZM.bl cells [18]: > 50 µg/mL
IC50, titer in TZM.bl cells [19]: 0.061 µg/mL
IC80, titer in TZM.bl cells [19]: > 50 µg/mL
IC50, titer in TZM.bl cells [20]: 49.2 µg/mL
IC80, titer in TZM.bl cells [20]: > 50 µg/mL
IC50, titer in TZM.bl cells [21]: > 50 µg/mL
IC80, titer in TZM.bl cells [21]: > 50 µg/mL
IC50 [22]: 0.143 µg/mL
IC80 [22]: > 50 µg/mL
IC50 [23]: 0.06 µg/mL
IC80 [23]: > 50 µg/mL
IC50, titer in TZM.bl cells [25]: 0.002 µg/mL
IC80, titer in TZM.bl cells [25]: 0.01 µg/mL
IC50 [26]: 0.003 µg/mL
IC80 [26]: 0.01 µg/mL
IC50 [27]: > 50 µg/mL
IC80 [27]: > 50 µg/mL
IC50 [28]: 0.014 µg/mL
IC80 [28]: > 50 µg/mL
IC50, titer in TZM.bl cells [29]: 0.014 µg/mL
IC80, titer in TZM.bl cells [29]: 0.202 µg/mL
IC50, titer in TZM.bl cells [30]: > 50 µg/mL
IC80, titer in TZM.bl cells [30]: > 50 µg/mL
IC50, titer in TZM.bl cells [31]: 0.002 µg/mL
IC80, titer in TZM.bl cells [31]: 0.01 µg/mL
IC50 [32]: 2.65 µg/mL
IC80 [32]: > 50 µg/mL
IC50, titer in TZM.bl cells [33]: < 0.001 µg/mL
IC80, titer in TZM.bl cells [33]: 0.004 µg/mL
IC50, titer in TZM.bl cells [34]: < 0.001 µg/mL
IC80, titer in TZM.bl cells [34]: 0.012 µg/mL
IC50 [35]: 0.003 µg/mL
IC80 [35]: 0.033 µg/mL
IC50 [36]: 0.004 µg/mL
IC80 [36]: 0.012 µg/mL
